Reference: paper PMC10015101

What was measured:
[1] = target: Rf1 soluble spike ectodomain, stabilised (2P, GSAS linker, T4 fibritin trimerization motif) (bat sarbecovirus Rf1 | bacteriophage T4) (UniProt Q0QDZ0); test: SEC
[2] = target: SARS-CoV-1 soluble spike ectodomain, stabilised (2P, GSAS linker, T4 fibritin trimerization motif) (SARS-CoV-1 | bacteriophage T4) (UniProt P59594); test: SEC

Substance | stoichiometry N [1] | stoichiometry N [2]
Rf1 soluble spike ectodomain, stabilised (2P, GSAS linker, T4 fibritin trimerization motif) (from UniProt Q0QDZ0 1-1176) (domain or fragment) | 3 | 
SARS-CoV-1 soluble spike ectodomain, stabilised (2P, GSAS linker, T4 fibritin trimerization motif) (from UniProt P59594 14-1190) (domain or fragment) |  | 3
